In article PMC4778124, “A continuous sirtuin activity assay without any coupling to enzymatic or chemical reactions” (Scientific Reports, 2016):
Where “and” joins values, the source holds several entries; their conditions need not be identical. Equal values may be shown once.

Assays:
[1] = substrate: CC(=O)N[C@@H](CCC(=O)O)C(=O)N[C@@H](C)C(=O)N[C@@H](CC(C)C)C(=O)N1CCC[C@H]1C(=O)N[C@@H](CCCCN)C(=O)N[C@@H](CCCCNC(=O)CCCCCCCCCCNC(=O)c1ccccc1N)C(=O)N[C@@H](Cc1ccc(O)c([N+](=O)[O-])c1)C(=O)NCC(=O)NCC(N)=O; assay: HPLC based activity assay; format: biochemical, human; conditions: other: HPLC; Sirt2; pH 7.8; 37.0 °C
Experimental: (§1) For the determination of kinetic constants for all sirtuin mediated reactions solutions containing 20 mM TRIS/HCl pH 7.8, 150 mM NaCl, 5 mM MgCl2 (assay-buffer), 500 μM NAD^+ and varying substrate concentrations (0.5–100 μM) were used. Deacylation was started by adding human sirtuin to reach a final concentration of 0.01–0.5 μM. Enzyme-catalyzed reaction was stopped using TFA (1% final concentration) after 1 min to 180 min of incubation at 37 °C depending on substrate reactivity. The cleavage rate of the different TNFα peptide derivatives was analyzed using analytical reversed phase HPLC. 40 to 80 μl of compounds or reaction solutions were injected and separated using a linear gradient from 5% to 95% solvent B within 6min. The product and substrate peaks were quantified using absorbance at 220 nm or 365 nm (absorption of 3-Nitrotyrosyl moiety). The peak areas were integrated and converted to initial velocity rates calculated from the ratio of product area to total peak area. Linear regression of conversions plotted against time yielded reaction rates in μM/min (relative conversion below 20% of substrate). Non-linear regression according to Michaelis-Menten of the reaction rates at different substrate concentrations yielded KM- and kcat-values using the program SigmaPlot 8 (Systat Software, San Jose, USA). All measurements were done in duplicates.
(§2) The reactions were performed with 0.1- 0.5 µM sirtuin, 500 µM NAD^+ and 50µM 13/16. All reactions were done in duplicates (n=2).

[2] = substrate: CC(=O)N[C@@H](CCC(=O)O)C(=O)N[C@@H](C)C(=O)N[C@@H](CC(C)C)C(=O)N1CCC[C@H]1C(=O)N[C@@H](CCCCN)C(=O)N[C@@H](CCCCNC(=O)CCCCCNC(=O)c1ccccc1N)C(=O)N[C@@H](Cc1ccc(O)c([N+](=O)[O-])c1)C(=O)NCC(=O)NCC(N)=O; assay: HPLC based activity assay; format: biochemical, human; conditions: other: HPLC; Sirt2; pH 7.8; 37.0 °C
Experimental: as §1, §2

[3] = substrate: CCCCCCCCCCCCCC(=O)NCCCC[C@H](NC(=O)[C@H](CCCCN)NC(=O)[C@@H]1CCCN1C(=O)[C@H](CC(C)C)NC(=O)[C@H](C)NC(=O)[C@H](CCC(=O)O)NC(C)=O)C(=O)N[C@H](C(=O)NCC(=O)NCC(N)=O)[C@@H](C)O; assay: HPLC based activity assay; format: biochemical, human; conditions: other: HPLC; Sirt2; pH 7.8; 37.0 °C
Experimental: as §1, §2

[4] = substrate: CC(=O)N[C@@H](CCC(=O)O)C(=O)N[C@@H](C)C(=O)N[C@@H](CC(C)C)C(=O)N1CCC[C@H]1C(=O)N[C@@H](CCCCN)C(=O)N[C@@H](CCCCNC(=O)CCCCCCCCCCNC(=O)CN1C(=O)c2cccc3c(N(C)C)ccc(c23)C1=O)C(=O)N[C@@H](Cc1ccc(O)c([N+](=O)[O-])c1)C(=O)NCC(=O)NCC(N)=O; assay: purified protein, by the assay type; conditions: other: MTPR (microtiter plate reader); Sirt2; 37.0 °C
Experimental: (§3) Each reaction mixture contained assay-buffer, 0.5 mM NAD^+ and various peptide concentrations (0.1–100 μM) and was preincubated for 5 minutes at 37 °C. The reaction was started by adding human sirtuin (0.1–0.5 μM) and observed for 5–10 minutes. Product formation could be monitored by increase of relative fluorescence. This signal was converted into product concentration via calibration lines. The slope of the linear regression of product formation against time yielded the reaction velocity rates in μM/s. KM and kcat were obtained by non-linear regression according to Michaelis-Menten. All measurements were done in duplicates. For determination of reaction velocity rates in μM/s calibration lines were necessary. […] The reaction mixture was analyzed with HPLC, to control if the entire peptide substrate was turned to product.
(§4) The reactions (total volume 100 μl) were measured in black low-binding 96-well microtiter plates (NUNC). Assay-buffer, 500 μM NAD^+ and 0.07–200 μM peptide substrate were pre-incubated at 37 °C for 5 min. The reaction was started by adding human sirtuin (0.01–0.5 μM). The signals were converted into product concentration via calibration lines and the resulting data were evaluated as described above (single fluorescence measurement). […] All measurements were done in duplicates. The reaction mixture for the calibration lines was prepared as described for the single fluorescence measurements.

[5] = substrate: CC(=O)N[C@@H](CCC(=O)O)C(=O)N[C@@H](C)C(=O)N[C@@H](CC(C)C)C(=O)N1CCC[C@H]1C(=O)N[C@@H](CCCCN)C(=O)N[C@@H](CCCCNC(=O)CCCCCCCCCCNC(=O)c1ccccc1N)C(=O)N[C@@H](Cc1ccc(O)c([N+](=O)[O-])c1)C(=O)NCC(=O)NCC(N)=O; assay: purified protein, by the assay type; conditions: other: Sirt2, measured using fluorescence spectrophotometer (footnote a), 0.5 mM NAD+, 37 °C
Experimental: as §3, §4

[6] = substrate: CC(=O)N[C@@H](CCC(=O)O)C(=O)N[C@@H](C)C(=O)N[C@@H](CC(C)C)C(=O)N1CCC[C@H]1C(=O)N[C@@H](CCCCN)C(=O)N[C@@H](CCCCNC(=O)CCCCCCCNC(=O)c1ccccc1N)C(=O)N[C@@H](Cc1ccc(O)c([N+](=O)[O-])c1)C(=O)NCC(=O)NCC(N)=O; assay: purified protein, by the assay type; conditions: other: Sirt2; measured using MTP fluorescence reader (footnote b); 37.0 °C
Experimental: as §3, §4

[7] = substrate: CC(=O)N[C@@H](CCC(=O)O)C(=O)N[C@@H](C)C(=O)N[C@@H](CC(C)C)C(=O)N1CCC[C@H]1C(=O)N[C@@H](CCCCN)C(=O)N[C@@H](CCCCNC(=O)CCCCCNC(=O)CCCCCNC(=O)c1ccccc1N)C(=O)N[C@@H](Cc1ccc(O)c([N+](=O)[O-])c1)C(=O)NCC(=O)NCC(N)=O; assay: purified protein, by the assay type; conditions: other: Sirt2; measured using MTP fluorescence reader (footnote b); 37.0 °C
Experimental: as §3, §4

[8] = substrate: CC(=O)N[C@@H](CCC(=O)O)C(=O)N[C@@H](C)C(=O)N[C@@H](CC(C)C)C(=O)N1CCC[C@H]1C(=O)N[C@@H](CCCCN)C(=O)N[C@@H](CCCCNC(=O)CCCCCNC(=O)c1ccccc1N)C(=O)N[C@@H](Cc1ccc(O)c([N+](=O)[O-])c1)C(=O)NCC(=O)NCC(N)=O; assay: purified protein, by the assay type; conditions: other: Sirt2, measured using fluorescence spectrophotometer (footnote a), 0.5 mM NAD+, 37 °C
Experimental: as §3, §4

[9] = substrate: COc1ccc2c(C[C@H](NC(=O)[C@H](CCCCNC(=O)CCCCCCCCCCNC(=O)c3cc([N+](=O)[O-])ccc3N)NC(=O)[C@H](CCCCN)NC(=O)[C@@H]3CCCN3C(=O)[C@H](CC(C)C)NC(=O)[C@H](C)NC(=O)[C@H](CCC(=O)O)NC(C)=O)C(=O)NCC(=O)NCC(N)=O)cc(=O)oc2c1; assay: purified protein, by the assay type; conditions: other: MTPR (microtiter plate reader); Sirt2; 37.0 °C
Experimental: as §3, §4

B1: Sirt2 (Homo sapiens) (protein)
chain: MAEPDPSHPLETQAGKVQEAQDSDSDSEGGAAGGEADMDFLRNLFSQTLSLGSQKERLLDELTLEGVARYMQSERCRRVICLVGAGISTSAGIPDFRSPSTGLYDNLEKYHLPYPEAIFEISYFKKHPEPFFALAKELYPGQFKPTICHYFMRLLKDKGLLLRCYTQNIDTLERIAGLEQEDLVEAHGTFYTSHCVSASCRHEYPLSWMKEKIFSEVTPKCEDCQSLVKPDIVFFGESLPARFFSCMQSDFLKVDLLLVMGTSLQVQPFASLISKAPLSTPRLLINKEKAGQSDPFLGMIMGLGGGMDFDSKKAYRDVAWLGECDQGCLALAELLGWKKELEDLVRREHASIDAQSGAGVPNPSTSASPKKSPPPAKDEARTTEREKPQ
notes: made in house
B1 was tested, and the Km [1] was 0.3 ± 0.04 µM, the kcat [1] was 3.9∙10^-2 ± 0.1∙10^-2 s^-1 and the kcat/Km [1] was 1.18∙10^5 M^-1s^-1. The Km [2] was 26.8 ± 2.7 µM, the kcat [2] was 3.9∙10^-3 ± 0.2∙10^-3 s^-1 and the kcat/Km [2] was 1.46∙10^2 M^-1s^-1. For the same protein, the Km [3] was 0.7 ± 0.1 µM, the kcat [3] was 3.7∙10^-2 ± 0.1∙10^-2 s^-1 and the kcat/Km [3] was 5.30∙10^4 M^-1s^-1. The Km [4] was 7.5 ± 1.5 µM, the kcat [4] was 2.6∙10^-3 ± 0.2∙10^-3 s^-1 and the kcat/Km [4] was 3.42∙10^2 M^-1s^-1. For the same protein, the Km [5] was 0.1 ± 0.02 µM and 0.12 ± 0.02 µM, the Km [6] was 1.2 ± 0.1 µM and the kcat/Km [6] was 38600 M⁻¹ s⁻¹. The Km [7] was 15.3 ± 2.7 µM, the kcat/Km [7] was 156 M⁻¹ s⁻¹ and the Km [8] was 17.7 ± 1.5 µM. For the same protein, the Km [9] was 0.8 ± 0.1 µM, the kcat [9] was 9.6∙10^-2 ± 0.5∙10^-2 s^-1 and the kcat/Km [9] was 1.25∙10^5 M^-1s^-1.
